In the RNAGym collection of RNA variant scans (doi:10.1073/pnas.2313332121):
Variants at the floor of the assay were thinned out.

B1: TPR 5TU (parent)
chain: GGAUCUUCUCGAUCUAACAAAAAAGACAAAUCUGCCACAAAGCUUGAGAGCAUCUUCGGAUGCAGAGGCGGCAGCCUUCGGUGGCGCGAUAGCGCCAACGUUCUCAACUAUGACACGCAAAACGCGUGCUCCGUUGAAUGGAGUUUAUCAUG

Variants of: B1
Test: polymerase ribozyme fitness, log enrichment relative to wild type (log ratio); higher = more active; in vitro selection for triplet polymerase activity
Summary of the method: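 Fitness measures genotype enrichment against wild-type enrichment on a logarithmic scale, with inverse-variance-weighted averaging of replicates. The logarithm is base 2, and genotypes were kept only with ≥10 input reads and ≥1 read per output in Illumina sequencing. The sequenced libraries came from one triplicate in vitro selection round, including frozen incubation at −7 °C, of PCR-built, transcribed mutant libraries of each subunit of a heterodimeric triplet polymerase ribozyme.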

Variant	polymerase ribozyme fitness (log ratio)
C76U C87A	-3.85
C76U C87G	-3.96
G80C C95U C99A G133U	≤ -4.2
C76G G84A A122G	≤ -4.2
C79U G140C	-4.1
C76G G86A	≤ -4.2
C79U C93A A98U A122U	-4
U77C G92C	-3.48
G81C G141C	-0.0339
G80C G94A	≤ -4.2
C79U C87U A113G	-4.11
C76G A98G A113U U151G	≤ -4.2
U77A G81A A113U U134G	≤ -4.2
C76U G88U	≤ -4.2
C79A U139C A142G U148A	≤ -4.2
C76U A91U G92A	-4.02
C79A G80A G81A G88U	≤ -4.2
C76G G140U U151G	≤ -4.2
C79U A121U	-1.2
U78C U146C	0.315
C76U A89G	-1.03
U77G C93U G100U	≤ -4.2
C76U C93A	-2.34
C79A G83U U134G	≤ -4.2

Variant	polymerase ribozyme fitness (log ratio)
G80A C114U A137C	-3.92
C79U C93U	-3.03
C79U C93A	-3.77
G80A C87U A89C C99A A120U	-2
G80A C85U G136A G143C	-1.57
C76U C96U	0.0365
U78G G141A	≤ -4.2
U82A A120C U130C G143U	-2.44
G81U C85A U139G	-0.703
G80U C125A	-1.04
G81C G86A	-1.83
U77C A91U U146A	≤ -4.2
G80A C93U U102A	-3.01
U77G A89U C95A C114U C125G	≤ -4.2
C79U U90A A106U	≤ -4.2
G80U C103G G152A	≤ -4.2
G81A C103A	-1.13
C76U G81A C99U	-0.44
U77G G117U	≤ -4.2
G81A A89C A119U C132G U135C G143C U148A	≤ -4.2
U82A C95A A97C C103U U134A	-3.46
C79U G84A	-3.04
G81A	-0.305
G81C	-0.471

Variant	polymerase ribozyme fitness (log ratio)
G81U	-0.702
C79U G92U	-1.44
G80A A89G G117U	-1.48
C76U U135C	-2.53
C76U U135G	-2.79
U78C G92C C105U A106G C114U U148G	≤ -4.2
U78G A91C C131G	≤ -4.2
U77G A91G G152A	≤ -4.2
C79G A91G A113U	≤ -4.2
G80A A91C G94A	-4.16
G80U U148C	-3.38
G80C G86U	-3.37
G81A G140C	-2.67
G81C C87A A91U C93U C114G A138C G141C	≤ -4.2
C76U C95U	0.961
C76U C85G A147C	-0.612
G81A C87U G100C G133U G141U	≤ -4.2
G81U G92U U148G G152A	-3.95
G81C G143C	-2.03
U78C G92A	-3.78
U78A C95G U127C U130G U139G	≤ -4.2
G81U C96U A150C	-3.33
G80C C96U	-3.79
C76U C105G	-3.71

Variant	polymerase ribozyme fitness (log ratio)
C76U A122G	-0.0921
C79U A150C	≤ -4.2
G81U G84U A119U G143A	-1.61
C76U A91U	-4.13
G81A C93U C95U	-1.11
U77C C96A	-2.82
G80C G86U G94C A137C	≤ -4.2
G80C C93G A115C U144C	≤ -4.2
G81A C85A G136A	0.0509
G81C A98U A107G	≤ -4.2
G81C G117A A119C	0.184
U77G G92U A115U	≤ -4.2
G81A A115U A142U	-2.42
C79U C87G	-3.61
C76U G94A	1.11
U78G C85G A142G U146C	≤ -4.2
G81C C132G	-3.75
G80A U146G U148C	-3.91
U78A C93A G94U	-4.16
U78C C87U G92A A115U	-2.33
C79A C108U	-4.06
G81C G126C	0.723
U77A C87U A98C C103A C125U U135G	≤ -4.2
U77G G81A A97G C99G U101C G141U A142G	≤ -4.2

Variant	polymerase ribozyme fitness (log ratio)
G80U G84A G126C C132U U145A	-3.25
G81A A89U G112A G133U C149U	≤ -4.2
C76U C99A	-1.37
U77C C87G A142G	≤ -4.2
U78G C85U G126U	≤ -4.2
C76G C103G U104G U135C	≤ -4.2
C76G C96G C99G G140U U148G	≤ -4.2
C79G G81U G133A	≤ -4.2
G81C G84U G126C	-2.04
C76U G84A C118U U134A G140C U151A	≤ -4.2
C76U G94A C105U	-0.337
C76U A119G G126U U139G	-0.649
C76A U104C	-3.57
G81U C93U G94U A98G C131A A137U	≤ -4.2
C76U G84A A119U U145G	-2.68
C79A U82G C93A G141U G152U	≤ -4.2
G81C C93U U130G C131U A150U	≤ -4.2
G80U C105U G136U	-1.49
C79A A91U A107C G124C U144C	≤ -4.2
U77A G88A	≤ -4.2
C79U A91C	-4.02
C76U C87G C125G	≤ -4.2
G80C C85U A97C C99A G141U	-3.93
G80U G81C G84U A89U A97U G100A G126U	≤ -4.2

Variant	polymerase ribozyme fitness (log ratio)
U82A	-0.0631
G80C C87U	≤ -4.2
C76U G84C	-1.35
C76U G84U	-0.883
C76U G117A	0.649
C76G G84A C118A G141C	≤ -4.2
G81U C85A C95A	-1.06
C79A A106G U146G	≤ -4.2
C76U C93G C132U	-3.96
C76U G84A C85A C129U U134C	≤ -4.2
C79G G88U U134C A142U	≤ -4.2
G81A A91G C99G A120C	-4
G80A C132U	-0.678
U77G C99A G140A	≤ -4.2
C79G A98U C99U G133U	≤ -4.2
C76G G88A G136A U139G	≤ -4.2
C79U C85U	-1.94
C79U G88C C93A G136U G143C	≤ -4.2
G81U C95U	-1.63
G80U C118A A119G	-1.3
G80U A110G	-4.05
C76U G143A	-1.28
U82A A106U C116U G126U U145C	-2.88
C76U U82G C87U	0.25

Variant	polymerase ribozyme fitness (log ratio)
G80A A150G	-1.8
C76U A115C	-0.614
C79U C103G	≤ -4.2
C79G A98G G100C G124A	-2.18
G81U G94C U144A	-0.944
U78A A91U	≤ -4.2
U82A A91G C105U	-2.53
G81C C85U A107C G126A	-4.16
C79U U90A A137G	≤ -4.2
G81A U127C	-2.04
G81A U127G	-3.31
G80C C87U U102G G124C U130A	≤ -4.2
U78A C93A G124U	≤ -4.2
G80A U144G	1.27
C79A C93A C95U	≤ -4.2
U77A C85U A91G G133C A142G	≤ -4.2
G80C C103G G124A A147G	≤ -4.2
G80C G83A A110U	≤ -4.2
U82A C93G	-3.41
C76G G84U U145C	≤ -4.2
G80A G124A	0.289
U77A U78C G94U C95G C105U	≤ -4.2
U78C C95U C108U C116U	≤ -4.2
